Experimental data as given in paper PMC7105676.

Target: T1, FlhF-His6 (Campylobacter jejuni 81-176?) (UniProt O52908)
T1 sequence: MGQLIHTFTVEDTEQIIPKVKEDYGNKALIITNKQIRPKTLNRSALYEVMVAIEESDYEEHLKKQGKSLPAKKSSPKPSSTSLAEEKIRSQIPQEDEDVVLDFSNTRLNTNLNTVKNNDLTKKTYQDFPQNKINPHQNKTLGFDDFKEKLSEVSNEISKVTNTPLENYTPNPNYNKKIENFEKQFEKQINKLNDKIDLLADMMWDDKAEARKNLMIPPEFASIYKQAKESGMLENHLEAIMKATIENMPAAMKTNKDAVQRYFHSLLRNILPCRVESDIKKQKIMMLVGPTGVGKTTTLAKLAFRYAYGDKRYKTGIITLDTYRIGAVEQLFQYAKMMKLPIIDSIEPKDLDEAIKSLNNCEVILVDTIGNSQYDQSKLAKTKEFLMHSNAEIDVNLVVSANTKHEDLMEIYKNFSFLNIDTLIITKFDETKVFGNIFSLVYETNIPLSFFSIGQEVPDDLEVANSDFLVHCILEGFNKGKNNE
Experiment: EMSA

| Sequence | binding |
| --- | --- |
| AAGCTCTATCAAAAGAAGTTTTAAAAACGCATCCTTATCTAAGGTAGCGTTTGGATTGCTCACTATTCCTGAGCTACTGCTTGAATCTGTTCTAGTTGTCCCACTAGTACTTCCTGAAGAAGTAGTACCTGAAGTTGTAGCAGTGGTATTTAAATTCCAATCCGATGATGATATCATTATAAACTCCTTTTTATTTAGTTTTTTATTATTTAAGCAATAAGTGTTCCAATTATCGTCGACCTGCAGGCA (double strand) [fliK promoter] | no binding |
| AATTCATCCTAAGCCTTTTAAAAAATTTCTGCTATGGTATCCAATTTGCGCTTAATTTTGAATTTACTTTTTTTTAAGTATAATAAATTATCGCATTTTGTTCGCCAAATTCCACGGTAAAACGCAAGGGTAAAATTTTGACATAAGTTTCGCTTTGGGCATGTAATAAGTCAGTATTAACAATATCCTTAACACTGATTCTAGCTCCATCGTCGACCTGCAGGCA (double strand) [flgR promoter] | no binding |
| ATAACGCCATTAATCCCCACTACACCACTTTTACACATATCTTCAGAAATAGCTCTTCTTTTCGTGATATTAACTACATTTAAAAATTTATCTACTCTCATAAAAGCAATTTTAGCAAAAAAAATCAATTTTTGGAACAAAATTTGCTTATGCCTTTGCTTTATTTTTTAAGAAAATAGCAAGTAAAAACTTTTCTTTAATGAAATTTGGATACAATTTTACAATTTTCAAATCTATTTTAACAAAGGATATCGTCGACCTGCAGGCA (double strand) [rpoN promoter] | no binding |
| CTTTTAAATCCTTTCAAAATATTGCATCGAAAAGATTAAAGCAAGAAGTGTTCCAAGTTTTAATTTGATTAAAAATTTTAAAGCTTATAAATAAAAAGCCTAGTATTTAAACTAGGCTTGGATTTGTATAAATTGCAGCATTCTTAAAAGAATGTAAAGTGATTTTAAGATTTAACTATTGTAATCGTCGACCTGCAGGCA (double strand) [flaB promoter] | no binding |
| TCATTTATCATTCCTCTAATAAAATCTTAAAATCATTCAAATCAAGTAAAAGCAAATTCTGTTCGCATATTTTATCAAATTCCTTGCTAAAACCATTTTTTGAGATTATAATGTAATAATTTGGAGCCAAATTTAAAGACTTTGCTTTTGATTTTAAAAGATTTAAAATATTTTTACAAATTTTTTTATTTTATCGTCGACCTGCAGGCA (double strand) [flgS promoter] | binds |
| TGCCTGCAGGTCGACGATAAATATCGACCTAAAGCGTAAATTTTATACCTTAAAAAGAAAAAATTATAATTTTAACAGAGCTTTAGAAAAATTTGAAAAAATATTCAAATCATAAACATAATAACCGATTTATATAGAAAGTTAAGCAATTTTTAGATAAAATCCAAAGCTTATATAAATTTCAAGGATAATCAA (double strand) [rpoD promoter] | binds |
| TGCCTGCAGGTCGACGATAAGAAATTTGGATCAACTAGCTTAAGCTTTTACGCTTCTTAACTTACTTGGAACACTTCTTGCTTGATCTATCATCAACAATAGATTAAAGGAAGAATCCA (double strand) [PflgI fragment 4] | binds |
| TGCCTGCAGGTCGACGATAATTTAATCATTTTTGAACACCACTCAACCATAAAAACTCCCGAAAAAATCCAAAATTTTCAAAAAGTCAAAGAAAAGAAATTTGGATCAACTAGCTTAAGCTTTTACGCTTCTTAACTTACTTGGAACACTTCTTGCTTGATCTATCATCAACAATAGATTAAAGGAAGAATCCA (double strand) [PflgI fragment 1] | binds |
| TGCCTGCAGGTCGACGATACCAGTTTCACCACTCGGGCTCATTTTTAAGATTTAAAGCTAAAATTATACTTTTTTAGGCTAAAAAATAACTTTAAAAATAAAAAGTATTTTCAAAAAGACGATATAAAATTATATAATTTAAATTTTTGGAACAGTTATTGCTTTTGTTTATTAGCAATATTTGAAAAGATTTTAACTTTAATACTTTAGAGGAAA (double strand) [flgL promoter] | no binding |
| TGCCTGCAGGTCGACGATAGAAAATTTAGATTTAAAGACTTTAAATTTAATCATTTTTGAACACCACTCAACCATAAAAACTCCCGAAAAAATCCAAAATTTTCAAAAAGTCAAAGAAAAGAAATTTGGATCAACTAGCTTAAGCTTTTACGCTTCTTAACTTACTTGGAACACTTCTTGCTTGATCTATCATCAACAATAGATTAAAGGAAGAATCCA (double strand) [flgI promoter (PflgI, 201 bp)] | binds |
| TGCCTGCAGGTCGACGATCAACCATAAAAACTCCCGAAAAAATCCAAAATTTTCAAAAAGTCAAAGAAAAGAAATTTGGATCAACTAGCTTAAGCTTTTACGCTTCTTAACTTACTTGGAACACTTCTTGCTTGATCTATCATCAACAATAGATTAAAGGAAGAATCCA (double strand) [PflgI fragment 2] | binds |
| TGCCTGCAGGTCGACGATGCTTTTACGCTTCTTAACTTACTTGGAACACTTCTTGCTTGATCTATCATCAACAATAGATTAAAGGAAGAATCCA (double strand) [PflgI fragment 5] | no binding |
| TGCCTGCAGGTCGACGATGGGTGTGATTTTGGTAATTTTCATTACACAAAAGACCAAAGCTTCATAAACTCCCAAAATACCTTTAAATTTTTTCTATAAATTTTTAAAAAATTTCAAAAGTTGGAACAGAACTTGCTTGTAAACTTCACATAAACGCAAAAGTTTTTTAAAGCCAAAGCGTTAAATTTTTTAAAGCAATATTTTATAAAGGATTTAAGA (double strand) [flgE promoter] | no binding |
| TGCCTGCAGGTCGACGATTGCAGATGCAAACATTAAAAATCCTTTAAATTTAGAATTCTTAGGTCATTTAAGCGCTTCTAAAGATGTAAGTGGTAGTATTAAAAAAAGAACTTTATTTAGCGATGAAAACACAGCCTCAAGTGATGAGATTAAAGCCCTAGCTTCCAAGCTTTTATATAGATTGGAACGGAAAGTGCTTGATA (double strand) [fliA promoter] | binds |
| TGGATTCTTCCTTTAATCTATTGTTGATGATAGATCAAGCAAGAAGTGTTCCAAGTAAGTTAAGAAGCGTAAAAGCTTAAGCTAGTTGATCCAAATTTCTTTTCTTTGACTTTTTGAAAATTTTGGATCGTCGACCTGCAGGCA (double strand) [PflgI fragment 3] | binds |
| TTCTTTGACTTTTTGAAAATTTTGGATTTTTTCGGGAGTTTTTATGGTTGAGTGGTGTTCAAAAATGATTAAATTTAAAGTCTTTAAATCTAAATTTTCTATCGTCGACCTGCAGGCA (double strand) [PflgI fragment 6] | no binding |
| TTTAAATCCTTTTAAATAATTTCAAACTCATCCATGAGCTTGTTAAATGCTATATCGTTACTTTTTTTAAAAATTTATACCTTAAACTAAAAAATTATAAATATCGCATTTTAATTGGAATCTGCAAATAAAAATTTCAAGCCACTGTTTATAAAATGTCAAGTATATTAATAAATACTCTCTTTCATCTTCAATTATCGTCGACCTGCAGGCA (double strand) [flaA promoter] | no binding |
